Laboratory results from patent US20150218238A1, “TREATING DISEASES BY MODULATING A SPECIFIC ISOFORM OF MKL1” (NOVARTIS FORSCHUNGSSTIFTUNG, ZWEIGNIEDERLASSUNG FRIEDRICH …, priority 2012, published 2015).

Tested on: EcR-293 cells
Assay: DNA microarray on EcR-293 cells overexpressing MKL1 isoforms
Format: cell-based, human
Settings: for ACTA2 fold change vs. control / ADAM21 fold change vs. control / AMBN fold change vs. control / CNN2 fold change vs. control / DSEL fold change vs. control / ESRRG fold change vs. control / MKL1 (total) fold change vs. control / MMP16 fold change vs. control / NAP1L3 fold change vs. control / OSTN fold change vs. control / PDGFD fold change vs. control / ROCK1P1 fold change vs. control / RORB fold change vs. control / SLC8A1 fold change vs. control / SPOCK3 fold change vs. control: vs empty pcDNA3 vector
Method: DNA microarray EcR-293 cells stably transfected with 1) the empty pcDNA3 vector, 2) 5′UTR-MKL_L, 3) 5′UTR-MKL_S were grown in triplicates. For “untreated” samples, total RNA was extracted from cells in D-MEM/10% FBS. “LPA treated” cells were starved for 16 h in D-MEM/0.3% FBS and subsequently treated with 50 μm LPA for 20 min. RNA was extracted 4 h after treatment. RNA was converted into labeled cRNA and hybridized to Affymetrix Human Gene 1.0 arrays (Affymetrix, Santa Clara, Calif., USA). The procedure for the microarray analysis was as previously described (4). Differences in gene expression were calculated for 2) vs. 1), 3) vs. 1), and 3) vs. 2). • (1) Miralles F et al., Cell, Volume 113, Issue 3, May 2003, 329-342 • (2) Maier S et al., Biochimica et Biophysica Acta (BBA)—Molecular Cell Research, Volume 1783, Issue 6, June 2008, 1150-1162 • (3) Martina et al., The FASEB Journal, Volume 24, Issue 3, March 2010, 778-787 • (4) Asparuhova et al., The FASEB Journal, Volume 25, Issue 10, October 2011, 3477-3488

B1: MKL_L: published long isoform of human MKL1 (SEQ ID NO:3), stably overexpressed in EcR-293 cells from construct 5′UTR-MKL_L (protein, listed as Homo sapiens)
chain: LPPSVIAVNGMDGGGAGENDDEPVLVSLSAAPSPQSEAVANELQELSLQPELTLGLHPGRNPNLPPLSERKNVLQLKLQQRRTREELVSQGIMPPLKSPAAFHEQRRSLERARTEDYLKRKIRSRPERSELVRMHILEETSAEPSLQAKQLKLKRARLADDLNEKIAQRPGPMELVEKNILPVESSLKEAIIVGQVNYPKVADSSSFDEDSSDALSPEQPASHESQGSVPSPLEARVSEPLLSATSASPTQVVSQLPMGRDSREMLFLAEQPPLPPPPLLPPSLTNGTTIPTAKSTPTLIKQSQPKSASEKSQRSKKAKELKPKVKKLKYHQYIPPDQKQDRGAPPMDSSYAKILQQQQLFLQLQILNQQQQQHHNYQAILPAPPKSAGEALGSSGTPPVRSLSTTNSSSSSGAPGPCGLARQNSTSLTGKPGALPANLDDMKVAELKQELKLRSLPVSGTKTELIERLRAYQDQISPVPGAPKAPAATSILHKAGEVVVAFPAARLSTGPALVAAGLAPAEVVVATVASSGVVKFGSTGSTPPVSPTPSERSLLSTGDENSTPGDTFGEMVTSPLTQLTLQASPLQILVKEEGPRAGSCCLSPGGRAELEGRDKDQMLQEKDKQIEALTRMLRQKQQLVERLKLQLEQEKRAQQPAPAPAPLGTPVKQENSFSSCQLSQQPLGPAHPFNPSLAAPATNHIDPCAVAPGPPSVVVKQEALQPEPEPVPAPQLLLGPQGPSLIKGVAPPTLITDSTGTHLVLTVTNKNADSPGLSSGSPQQPSSQPGSPAPAPSAQMDLEHPLQPLFGTPTSLLKKEPPGYEEAMSQQPKQQENGSSSQQMDDLFDILIQSGEISADFKEPPSLPGKEKPSPKTVCGSPLAAQPSPSAELPQAAPPPPGSPSLPGRLEDFLESSTGLPLLTSGHDGPEPLSLIDDLHSQMLSSTAILDHPPSPMDTSELHFVPEPSSTMGLDLADGHLDSMDWLELSSGGPVLSLAPLSTTAPSLFSTDFLDGHDLQLHWDSCL
4 h after LPA treatment
  ACTA2 fold change vs. control: +1.86 (7.22E−05) fold
  ADAM21 fold change vs. control: −1.36 (8.44E−04) fold
  AMBN fold change vs. control: +3.09 (3.65E−06) fold
  CNN2 fold change vs. control: <1.20 fold
  DSEL fold change vs. control: +1.56 (1.45E−04) fold
  ESRRG fold change vs. control: +1.71 (2.20E−07) fold
  MKL1 (total) fold change vs. control: +4.61 (4.29E−09) fold
  MMP16 fold change vs. control: +2.30 (4.46E−05) fold
  NAP1L3 fold change vs. control: +1.86 (1.01E−04) fold
  OSTN fold change vs. control: <1.20 fold
  PDGFD fold change vs. control: +1.50 (2.62E−05) fold
  ROCK1P1 fold change vs. control: <1.20 fold
  RORB fold change vs. control: +1.53 (5.71E−05) fold
  SLC8A1 fold change vs. control: +2.18 (6.58E−07) fold
  SPOCK3 fold change vs. control: +2.31 (1.61E−06) fold
Untreated cells
  ACTA2 fold change vs. control: +2.62 (5.99E−08) fold
  ADAM21 fold change vs. control: −1.27 (1.586−02) fold
  AMBN fold change vs. control: −1.89 (2.18E−04) fold
  CNN2 fold change vs. control: +1.65 (2.35E−06) fold
  DSEL fold change vs. control: +1.61 (4.36E−04) fold
  ESRRG fold change vs. control: +2.14 (6.11E−08) fold
  MKL1 (total) fold change vs. control: +5.68 (1.23E−12) fold
  MMP16 fold change vs. control: +1.47 (6.97E−04) fold
  NAP1L3 fold change vs. control: +1.54 (7.53E−04) fold
  OSTN fold change vs. control: −2.38 (2.56E−05) fold
  PDGFD fold change vs. control: +1.93 (7.54E−05) fold
  ROCK1P1 fold change vs. control: <1.20 fold
  RORB fold change vs. control: +2.27 (5.80E−08) fold
  SLC8A1 fold change vs. control: +1.89 (1.37E−07) fold
  SPOCK3 fold change vs. control: +1.63 (7.80E−05) fold

B2: MKL_S: novel short isoform of human MKL1 (SEQ ID NO:1), stably overexpressed in EcR-293 cells from construct 5′UTR-MKL_S (protein, listed as Homo sapiens)
chain: MTLLEPEMLMMAVQSVLQLKLQQRRTREELVSQGIMPPLKSPAAFHEQRRSLERARTEDYLKRKIRSRPERSELVRMHILEETSAEPSLQAKQLKLKRARLADDLNEKIAQRPGPMELVEKNILPVESSLKEAIIVGQVNYPKVADSSSFDEDSSDALSPEQPASHESQGSVPSPLEARVSEPLLSATSASPTQVVSQLPMGRDSREMLFLAEQPPLPPPPLLPPSLTNGTTIPTAKSTPTLIKQSQPKSASEKSQRSKKAKELKPKVKKLKYHQYIPPDQKQDRGAPPMDSSYAKILQQQQLFLQLQILNQQQQQHHNYQAILPAPPKSAGEALGSSGTPPVRSLSTTNSSSSSGAPGPCGLARQNSTSLTGKPGALPANLDDMKVAELKQELKLRSLPVSGTKTELIERLRAYQDQISPVPGAPKAPAATSILHKAGEVVVAFPAARLSTGPALVAAGLAPAEVVVATVASSGVVKFGSTGSTPPVSPTPSERSLLSTGDENSTPGDTFGEMVTSPLTQLTLQASPLQILVKEEGPRAGSCCLSPGGRAELEGRDKDQMLQEKDKQIEALTRMLRQKQQLVERLKLQLEQEKRAQQPAPAPAPLGTPVKQENSFSSCQLSQQPLGPAHPFNPSLAAPATNHIDPCAVAPGPPSVVVKQEALQPEPEPVPAPQLLLGPQGPSLIKGVAPPTLITDSTGTHLVLTVTNKNADSPGLSSGSPQQPSSQPGSPAPAPSAQMDLEHPLQPLFGTPTSLLKKEPPGYEEAMSQQPKQQENGSSSQQMDDLFDILIQSGEISADFKEPPSLPGKEKPSPKTVCGSPLAAQPSPSAELPQAAPPPPGSPSLPGRLEDFLESSTGLPLLTSGHDGPEPLSLIDDLHSQMLSSTAILDHPPSPMDTSELHFVPEPSSTMGLDLADGHLDSMDWLELSSGGPVLSLAPLSTTAPSLFSTDFLDGHDLQLHWDSCL
4 h after LPA treatment
  ACTA2 fold change MKL_S vs. MKL_L: <1.20 fold
  ADAM21 fold change MKL_S vs. MKL_L: +1.65 (2.95E−05) fold
  AMBN fold change MKL_S vs. MKL_L: +1.67 (1.04E−03) fold
  CNN2 fold change MKL_S vs. MKL_L: +1.44 (1.06E−06) fold
  DSEL fold change MKL_S vs. MKL_L: +1.50 (2.87E−04) fold
  ESRRG fold change MKL_S vs. MKL_L: <1.20 fold
  MKL1 (total) fold change MKL_S vs. MKL_L: −1.91 (3.79E−06) fold
  MMP16 fold change MKL_S vs. MKL_L: +2.54 (1.95E−05) fold
  NAP1L3 fold change MKL_S vs. MKL_L: +1.49 (1.82E−03) fold
  OSTN fold change MKL_S vs. MKL_L: +1.92 (1.57E−04) fold
  PDGFD fold change MKL_S vs. MKL_L: <1.20 fold
  ROCK1P1 fold change MKL_S vs. MKL_L: +1.60 (1.99E−03) fold
  RORB fold change MKL_S vs. MKL_L: <1.20 fold
  SLC8A1 fold change MKL_S vs. MKL_L: −1.31 (1.42E−03) fold
  SPOCK3 fold change MKL_S vs. MKL_L: 2.18 (2.70E−06) fold
  ACTA2 fold change vs. control: +2.02 (2.99E−05) fold
  ADAM21 fold change vs. control: +1.38 (3.69E−06) fold
  AMBN fold change vs. control: +5.14 (1.97E−07) fold
  CNN2 fold change vs. control: +1.67 (6.37E−08) fold
  DSEL fold change vs. control: +2.33 (1.17E−06) fold
  ESRRG fold change vs. control: +1.93 (4.52E−08) fold
  MKL1 (total) fold change vs. control: +2.41 (3.56E−07) fold
  MMP16 fold change vs. control: +5.86 (1.39E−07) fold
  NAP1L3 fold change vs. control: +2.78 (2.44E−06) fold
  OSTN fold change vs. control: +2.23 (3.48E−05) fold
  PDGFD fold change vs. control: +1.61 (8.28E−06) fold
  ROCK1P1 fold change vs. control: +1.53 (3.63E−03) fold
  RORB fold change vs. control: +1.46 (1.34E−04) fold
  SLC8A1 fold change vs. control: +1.67 (1.71E−05) fold
  SPOCK3 fold change vs. control: +5.04 (8.54E−09) fold
Untreated cells
  ACTA2 fold change MKL_S vs. MKL_L: <1.20 fold
  ADAM21 fold change MKL_S vs. MKL_L: <1.20 fold
  AMBN fold change MKL_S vs. MKL_L: +1.73 (5.61E−04) fold
  CNN2 fold change MKL_S vs. MKL_L: +1.53 (7.48E−06) fold
  DSEL fold change MKL_S vs. MKL_L: +1.51 (1.13E−03) fold
  ESRRG fold change MKL_S vs. MKL_L: <1.20 fold
  MKL1 (total) fold change MKL_S vs. MKL_L: −1.54 (8.11E−08) fold
  MMP16 fold change MKL_S vs. MKL_L: +2.03 (9.27E−06) fold
  NAP1L3 fold change MKL_S vs. MKL_L: +1.75 (1.30E−04) fold
  OSTN fold change MKL_S vs. MKL_L: +1.90 (2.17E−04) fold
  PDGFD fold change MKL_S vs. MKL_L: <1.20 fold
  ROCK1P1 fold change MKL_S vs. MKL_L: <1.20 fold
  RORB fold change MKL_S vs. MKL_L: <1.20 fold
  SLC8A1 fold change MKL_S vs. MKL_L: <1.20 fold
  SPOCK3 fold change MKL_S vs. MKL_L: +1.97 (6.82E−06) fold
  ACTA2 fold change vs. control: +2.30 (1.88E−07) fold
  ADAM21 fold change vs. control: −1.21 (1.63E−02) fold
  AMBN fold change vs. control: <1.20 fold
  CNN2 fold change vs. control: +2.53 (1.91E−08) fold
  DSEL fold change vs. control: +2.43 (5.20E−06) fold
  ESRRG fold change vs. control: +2.37 (2.34E−08) fold
  MKL1 (total) fold change vs. control: +3.70 (1.19E−11) fold
  MMP16 fold change vs. control: +2.98 (3.46E−07) fold
  NAP1L3 fold change vs. control: +2.68 (1.98E−06) fold
  OSTN fold change vs. control: <1.20 fold
  PDGFD fold change vs. control: +2.01 (4.75E−05) fold
  ROCK1P1 fold change vs. control: <1.20 fold
  RORB fold change vs. control: +1.96 (2.76E−07) fold
  SLC8A1 fold change vs. control: +1.70 (5.75E−07) fold
  SPOCK3 fold change vs. control: +3.21 (1.08E−07) fold
